{"source": "IntAct's records for PubMed 22139370", "parents": {"B1": {"name": "Cryptochrome-2 (Arabidopsis thaliana (Mouse-ear cress)), Q96524 (parent)", "chain": "MKMDKKTIVWFRRDLRIEDNPALAAAAHEGSVFPVFIWCPEEEGQFYPGRASRWWMKQSLAHLSQSLKALGSDLTLIKTHNTISAILDCIRVTGATKVVFNHLYDPVSLVRDHTVKEKLVERGISVQSYNGDLLYEPWEIYCEKGKPFTSFNSYWKKCLDMSIESVMLPPPWRLMPITAAAEAIWACSIEELGLENEAEKPSNALLTRAWSPGWSNADKLLNEFIEKQLIDYAKNSKKVVGNSTSLLSPYLHFGEISVRHVFQCARMKQIIWARDKNSEGEESADLFLRGIGLREYSRYICFNFPFTHEQSLLSHLRFFPWDADVDKFKAWRQGRTGYPLVDAGMRELWATGWMHNRIRVIVSSFAVKFLLLPWKWGMKYFWDTLLDADLECDILGWQYISGSIPDGHELDRLDNPALQGAKYDPEGEYIRQWLPELARLPTEWIHHPWDAPLTVLKASGVELGTNYAKPIVDIDTARELLAKAISRTREAQIMIGAAPDEIVADSFEALGANTIKEPGLCPSVSSNDQQVPSAVRYNGSKRVKPEEEEERDMKKSRGFDERELFSTAESSSSSSVFFVSQSCSLASEGKNLEGIQDSSDQITTSLGKNGCK", "partner": "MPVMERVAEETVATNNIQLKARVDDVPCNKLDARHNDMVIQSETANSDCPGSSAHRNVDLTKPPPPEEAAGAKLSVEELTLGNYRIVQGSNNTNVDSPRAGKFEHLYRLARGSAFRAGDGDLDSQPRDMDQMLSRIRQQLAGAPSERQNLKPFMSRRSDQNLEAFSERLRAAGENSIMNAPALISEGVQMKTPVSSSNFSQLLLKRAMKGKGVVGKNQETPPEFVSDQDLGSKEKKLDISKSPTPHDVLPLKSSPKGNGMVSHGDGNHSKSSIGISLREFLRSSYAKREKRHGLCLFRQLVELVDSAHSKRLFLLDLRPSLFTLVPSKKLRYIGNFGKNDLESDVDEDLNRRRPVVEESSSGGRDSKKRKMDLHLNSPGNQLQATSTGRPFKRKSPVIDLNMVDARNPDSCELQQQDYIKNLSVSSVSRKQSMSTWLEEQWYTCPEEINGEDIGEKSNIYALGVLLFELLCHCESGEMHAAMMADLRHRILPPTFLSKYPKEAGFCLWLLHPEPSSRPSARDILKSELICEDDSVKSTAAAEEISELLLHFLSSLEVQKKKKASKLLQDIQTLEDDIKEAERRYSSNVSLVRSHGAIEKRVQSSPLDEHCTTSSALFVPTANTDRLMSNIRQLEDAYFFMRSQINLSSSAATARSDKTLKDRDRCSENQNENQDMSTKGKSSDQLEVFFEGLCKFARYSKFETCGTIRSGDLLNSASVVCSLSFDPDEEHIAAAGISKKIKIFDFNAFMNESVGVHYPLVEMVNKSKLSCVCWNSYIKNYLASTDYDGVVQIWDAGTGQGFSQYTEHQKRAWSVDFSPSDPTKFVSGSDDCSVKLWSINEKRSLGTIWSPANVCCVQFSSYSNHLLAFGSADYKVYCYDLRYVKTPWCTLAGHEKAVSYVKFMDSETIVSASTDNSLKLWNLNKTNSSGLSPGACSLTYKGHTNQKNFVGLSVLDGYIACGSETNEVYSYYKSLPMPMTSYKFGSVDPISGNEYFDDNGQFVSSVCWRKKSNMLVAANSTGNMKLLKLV"}, "B2": {"name": "Cryptochrome-2 (Arabidopsis thaliana (Mouse-ear cress)), Q96524 (parent)", "chain": "B1 chain", "partner": "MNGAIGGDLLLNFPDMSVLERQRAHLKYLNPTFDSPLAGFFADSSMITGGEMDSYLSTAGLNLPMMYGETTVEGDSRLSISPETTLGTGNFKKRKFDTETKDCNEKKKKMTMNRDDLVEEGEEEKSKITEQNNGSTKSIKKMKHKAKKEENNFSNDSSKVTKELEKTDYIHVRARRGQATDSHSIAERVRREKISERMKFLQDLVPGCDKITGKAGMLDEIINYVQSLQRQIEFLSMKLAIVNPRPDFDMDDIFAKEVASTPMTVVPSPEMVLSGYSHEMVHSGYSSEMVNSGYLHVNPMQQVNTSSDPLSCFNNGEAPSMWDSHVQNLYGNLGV"}}, "data": [{"variants_of": "B1", "details": "with spa1_arath SPA1, Q9SYX2", "values": [{"variant": "W374A", "effect of a mutation on the interaction": "increasing interaction strength"}]}, {"variants_of": "B2", "details": "with bh063_arath BHLH63, Q8GY61", "values": [{"variant": "W374A", "effect of a mutation on the interaction": "increasing interaction strength"}, {"variant": "D387A", "effect of a mutation on the interaction": "disrupting interaction strength"}]}]}
